{"source": "patent US20080131510", "proteins": {"B1": {"name": "matrix metalloprotease-2 (MMP-2), activated (protein)", "chain": "YNFFPRKPKWDKNQITYRIIGYTPDLDPETVDDAFARAFQVWSDVTPLRFSRIHDGEADIMINFGRWEHGDGYPFDGKDGLLAHAFAPGTGVGGDSHFDDDELWTLGEGQVVRVKYGNADGEYCKFPFLFNGKEYNSCTDTGRSDGFLWCSTTYNFEKDGKYGFCPHEALFTMGGNAEGQPCKFPFRFQGTSYDSCTTEGRTDGYRWCGTTEDYDRDKKYGFCPETAMSTVGGNSEGAPCVFPFTFLGNKYESCTSAGRSDGKMWCATTANYDDDRKWGFCPDQGYSLFLVAAHEFGHAMGLEHSQDPGALMAPIYTYTKNFRLSQDDIKGIQELYGASPDIDLGTGPTPTLGPVTPEICKQDIVFDGIAQIRGEIFFFKDRFIWRTVTPRDKPMGPLLVATFWPELPEKIDAVYEAPQEEKAVFFAGNEYWIYSASTLERGYPKPLTSLGLPPDVQRVDAAFNWSKNKKTYIFAGDKFWRYNEVKKKMDPGFPKLIADAWNAIPDNLDAVVDLQGGGHSYFFKGAYYLKLENQSLKSVKFGSIKSDWLGC"}}, "key": {"[1]": {"biological_target": "T1, Lys*-Pro-Ala-Gly-Leu-Leu-Gly-Cys (SEQ ID NO:2)", "T1 chain": "KPAGLLGC"}, "[2]": {"biological_target": "T2, Lys*-Gly-Leu-Cys (SEQ ID NO:33)", "T2 chain": "KGLC"}, "[3]": {"biological_target": "T3, Lys*-Pro-Ala-Gly-Leu-Leu-Gly-Cys (SEQ ID NO:2), pendant in PEG(8000)DA hydrogel and complexed with Pt (not fully specified)", "T3 chain": "KPAGLLGC"}, "[4]": {"biological_target": "T4, Lys*-Ala-Gly-Leu-Leu-Cys (SEQ ID NO:32)", "T4 chain": "KAGLLC"}, "[5]": {"biological_target": "T1, Lys*-Pro-Ala-Gly-Leu-Leu-Gly-Cys (SEQ …)", "test": "peptide cleavage kinetics by HPLC, 10 nM activated MMP; the filing calls Km 'affinity or binding strength'"}, "[6]": {"biological_target": "T2, Lys*-Gly-Leu-Cys (SEQ ID NO:33)", "test": "peptide cleavage kinetics by HPLC, 10 nM activated MMP; the filing calls Km 'affinity or binding strength'"}, "[7]": {"biological_target": "T4, Lys*-Ala-Gly-Leu-Leu-Cys (SEQ ID NO:32)", "test": "peptide cleavage kinetics by HPLC, 10 nM activated MMP; the filing calls Km 'affinity or binding strength'"}}, "data": [{"protein": "B1", "values": [{"measurement": "Kcat/Km", "setting": "[1]", "result": 10700, "unit": "M⁻¹ s⁻¹"}, {"measurement": "Vmax", "setting": "[1]", "result": "2.7e-07", "unit": "M/s"}, {"measurement": "kcat", "setting": "[1]", "result": 10.7, "unit": "s⁻¹"}, {"measurement": "Kcat/Km", "setting": "[2]", "result": 439, "unit": "M⁻¹ s⁻¹"}, {"measurement": "Vmax", "setting": "[2]", "result": "8.8e-10", "unit": "M/s"}, {"measurement": "kcat", "setting": "[2]", "result": 0.035, "unit": "s⁻¹"}, {"measurement": "release of cleaved fragment from the PEG(8000)DA hydrogels", "setting": "[3]", "result": "the addition of MMP-2 and MMP-9 showed a significantly higher release of cleaved fragment from the PEG(8000)DA hydrogels compared to the control"}, {"measurement": "Kcat/Km", "setting": "[4]", "result": 171, "unit": "M⁻¹ s⁻¹"}, {"measurement": "Vmax", "setting": "[4]", "result": "6.02e-09", "unit": "M/s"}, {"measurement": "kcat", "setting": "[4]", "result": 0.24, "unit": "s⁻¹"}, {"measurement": "Km", "setting": "[5]", "result": 1000, "unit": "µM"}, {"measurement": "Km", "setting": "[6]", "result": 81, "unit": "µM"}, {"measurement": "Km", "setting": "[7]", "result": 1400, "unit": "µM"}]}]}
